Laboratory results published in the supplement of paper PMC10724198.
± gives the standard deviation of the averaged measurements.

Tested on: Saccharomyces cerevisiae
Assay: protein stability index of tFT-peptide fusion (C-terminal peptide) (PSI (0-1 scale)); higher = more stable (slower turnover)
Conditions: genetic background: wild type; temperature: 30 C
Protocol: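 Multiplexed protein stability (MPS) profiling in S. cerevisiae. Random 12-aa peptides (tFT-X12 library) are fused to the C-terminus of a sfGFP-mCherry tandem fluorescent timer, after mCherry and a GGGS linker. Cells are FACS-sorted into 8 mCherry/sfGFP bins and deep-sequenced. The protein stability index (PSI) is the read-weighted bin average, scaled from 0 (unstable) to 1 (stable). Only peptides with >10 reads are reported; cells were grown at 30 °C in SC-His with glucose.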
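Also: PSI is a weighted mean of sequencing reads over stability bins, variants kept only with over 10 reads, mCherry proximal and sfGFP distal, peptide attached via GGGS linker.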

Sequence	protein stability index
GPVRIDSPFKSA	0.733 ± 0.017
PHRPPPCLPFGS	0.728 ± 0.039
LYSSMFCGTFLL	0.605 ± 0.048
LRESPPHLPFPP	0.701 ± 0.039
PPVPPPDLCSAL	0.653 ± 0.068
PHASLAPPLPPP	0.5801 ± 0.0042
DFCPCPRWFLRR	0.715 ± 0.086
GCGARSVQSLGD	0.707 ± 0.039
VGFFLGVLLSLL	0.521 ± 0.0085
HSSSGTHRIKKT	0.667 ± 0.052
TKQSKRKHESRT	0.671 ± 0.044
DAACDSGLSAEW	0.722 ± 0.015
QESPERRGVPPF	0.674 ± 0.047
PLATLIPPLIPS	0.554 ± 0.084
RLYCSWEFTFVQ	0.617 ± 0.019
VWSGGCVSRWSG	0.745 ± 0.15
PEMCEKRIKTPT	0.634 ± 0.031
PPTHLLRTHPPA	0.68368 ± 0.00032
AMGIPLLTTHFI	0.674 ± 0.064
ARVAGECRCGRT	0.6554 ± 0.00095
SACRVGKSILDT	0.728 ± 0.057
PPPPPFLPPTPP	0.622 ± 0.041
LRPCVSHLHLQN	0.677 ± 0.18
RSPSCSPSAVPL	0.738 ± 0.063
VKWFRESRMVGA	0.65 ± 0.027

Sequence	protein stability index
APSCPKSLTFLD	0.734 ± 0.035
EFPSFHDQGAYM	0.738 ± 0.062
ISHPTPQSVPAI	0.612 ± 0.0063
MIIPTVLCRVDL	0.661 ± 0.022
WCGSSGLFLVVW	0.594 ± 0.017
IYVWALSPVTLP	0.628 ± 0.019
AKSRQRKNGRTG	0.708 ± 0.026
SVFFFLPIYFPF	0.633 ± 0.033
AGVASTETREGG	0.685 ± 0.0073
AGCVLDGRGVVA	0.615 ± 0.074
SVSVFLMGLRGT	0.694 ± 0.015
NYNNGHNLKKER	0.634 ± 0.012
APPLPPSPPSAR	0.729 ± 0.11
RAAFNPCYTIDF	0.729 ± 0.025
APGGACINIQLM	0.663 ± 0.044
HPPPCLSLPSSP	0.731 ± 0.095
PLPLHLATPHLF	0.694 ± 0.05
SAVGRTYGVIII	0.673 ± 0.029
KGYEGGRRCELE	0.696 ± 0.039
TPTRPLSSALRL	0.697 ± 0.05
GFRALRCPTAFS	0.742 ± 0.078
NQSSTSEENSGG	0.653 ± 0.024
KKKKTKKSKQKK	0.721 ± 0.0089
DPPPPSPPASMP	0.663 ± 0.036
EGGTGNHSVSNQ	0.654 ± 0.022

Sequence	protein stability index
ACGALAKMILFW	0.663 ± 0.059
IDASPRFRDFLF	0.71 ± 0.022
RGARPRTPPSPP	0.713 ± 0.03
GPRVLCNCHLRD	0.688 ± 0.0083
GGVNRPRKSTAT	0.6977 ± 0.0063
GGVLERARRRGG	0.708 ± 0.2
IGATSMSREARY	0.7052 ± 0.0017
KKKKKKKESRSS	0.68 ± 0.045
PLSCDSPFVNPT	0.737 ± 0.042
SLFALPLPPPAQ	0.695 ± 0.025
SLKIHIKQIEKK	0.766 ± 0.022
LPLALLSPPFGS	0.707 ± 0.022
GVWVASCSGAGI	0.632 ± 0.033
LPPLAPSSPPRP	0.696 ± 0.033
ASTPLPTSPPPP	0.66 ± 0.036
PPPPFSPAHLPH	0.6993 ± 0.0042
GWWAVSRSGCCC	0.693 ± 0.015
APPCILCLFPAC	0.716 ± 0.024
QYGARNHPPTTK	0.742 ± 0.063
FVGMLSDRAPPP	0.742 ± 0.041
FRVHSFRLSCLS	0.574 ± 0.022
WERRRGVCGGVW	0.707 ± 0.05
PPSVILTSASSR	0.721 ± 0.011
FGGKLVTHGISY	0.673 ± 0.054
RPGDAASGARGA	0.691 ± 0.081

Sequence	protein stability index
VGDGGGEVMGEA	0.677 ± 0.053
KHFLFSVVHFSG	0.696 ± 0.028
EGSSVITFAGGG	0.664 ± 0.046
YVGLNHYCIDAL	0.723 ± 0.054
LVGICERRHVHC	0.638 ± 0.11
PNRSPPLPRPLM	0.693 ± 0.0074
GLGTIYGGEWWW	0.759 ± 0.085
PVSPSIHPPSYP	0.759 ± 0.023
CVLWLISLLPDR	0.563 ± 0.068
LVVSITGRFRRF	0.69 ± 0.03
FISYFRFDRFGS	0.699 ± 0.029
SALRALRPGSLP	0.806 ± 0.11
PPPPVLPPPLPP	0.7 ± 0.012
KNKKKKKTKKKK	0.792 ± 0.079
AVLTLRAPPSAL	0.708 ± 0.025
EPAFMRRFMSNK	0.657 ± 0.016
FFSPSSVSVGVR	0.65 ± 0.076
WLFSSRDSGACR	0.8029 ± 0.0011
LPSHPHDRPPQT	0.719 ± 0.019
PATQTRKETRTP	0.69 ± 0.059
LLAFRVSRYFCD	0.87 ± 0.06
WHGSVPHLWFPP	0.59 ± 0.026
RRIQNHPDSTSA	0.696 ± 0.067
VSPLSHPPSPAP	0.702 ± 0.021
TKSPYLTVNETA	0.686 ± 0.055

Sequence	protein stability index
QLHGWMTRNPLL	0.746 ± 0.051
CNDAYKSKLARL	0.696 ± 0.034
CRASGGVSCGAS	0.639 ± 0.046
VTGTQGELGSFV	0.689 ± 0.11
QRVWGFRSVFVR	0.532 ± 0.035
HPSNMYSGDEAP	0.68 ± 0.01
KTHTIGPSPYYD	0.649 ± 0.0088
VPRMLSTPKAQP	0.723 ± 0.01
SLRPALSFLPLP	0.716 ± 0.054
SNWGLYGCRLYP	0.759 ± 0.073
ALPPPRPPPPSP	0.692 ± 0.034
YGGAWGGVIHVC	0.657 ± 0.0081
GFLVALVSRIGW	0.565 ± 0.037
GVVVVVVGRGLG	0.574 ± 0.018
DWGAGAASRADR	0.708 ± 0.015
ISCGERSRGGGK	0.6122 ± 0.0029
VRRSGMNIVVLP	0.63872 ± 0.00027
RGLPVLTFPHTP	0.71 ± 0.0095
IPLGGPTPSNYD	0.721 ± 0.025
CVFSEMIVCDGG	0.566 ± 0.049
LSPPLAPPPALP	0.701 ± 0.08
SPCLTRSALPSP	0.687 ± 0.038
ELLHMAAGLGGR	0.643 ± 0.015
PNLTYNTLRVVL	0.638 ± 0.04
GSLPQLRAACRA	0.566 ± 0.023

Sequence	protein stability index
NGPAPTFSPAVR	0.685 ± 0.032
QKKKKNKKQKTE	0.599 ± 0.021
LFPFIPPRLPLP	0.687 ± 0.01
QGGRGGRHVTDI	0.688 ± 0.022
TNQITRHELTTY	0.599 ± 0.043
NGLPGNLYAGKT	0.6558 ± 0.0062
LLSSSLPVCLWS	0.733 ± 0.048
HRLMDTNFSRSP	0.743 ± 0.061
GAGGGRSERERG	0.593 ± 0.0074
EGGIYLQMCVGS	0.616 ± 0.035
MLSPQIERGAGR	0.681 ± 0.018
ICSLLIRREELV	0.681 ± 0.081
AIVWGVGCGSVG	0.738 ± 0.12
EEGARAAGGEPQ	0.68 ± 0.036
FRFNPGSCSRPV	0.681 ± 0.016
GDPWLGVRNAVG	0.749 ± 0.22
IALLGCFRVNGN	0.638 ± 0.095
RAVVTGEGESGG	0.624 ± 0.0092
VSVGLGRCSIFW	0.7217 ± 0.0048
FCRKVFFALRRF	0.612 ± 0.095
PSPRASLPRLPP	0.597 ± 0.074
RLLYGICLLGAS	0.558 ± 0.092
KNKKNKKKTPTT	0.727 ± 0.013
EGRDDIVEKKRR	0.66 ± 0.063
QNGAEESVSVGT	0.662 ± 0.042

Sequence	protein stability index
WALRADGGERTG	0.684 ± 0.021
IVTQGCLFFLVR	0.687 ± 0.038
KRNKKCKKIKKK	0.677 ± 0.11
PPPLLPAPGSTI	0.662 ± 0.0079
GKRTGRKKRRKR	0.638 ± 0.095
LVCCRRILLNTT	0.634 ± 0.089
VNELYDNETTYV	0.734 ± 0.035
VAESGRGAGGDF	0.7314 ± 0.0029
PPSPRPPPPSPS	0.719 ± 0.1
SGPTFRWAGVLC	0.593 ± 0.014
EFALVFVRARRA	0.586 ± 0.047
LAPPPPARPALP	0.699 ± 0.0076
FFPARPPPPPPR	0.769 ± 0.04
TYWAPPFPLSLP	0.52 ± 0.019
PPPPPLPPPSPF	0.734 ± 0.06
GGGGGGVRWASG	0.707 ± 0.051
RSRLPTPRLYPP	0.708 ± 0.01
SGFRALWGLFAL	0.683 ± 0.014
SLPPSFPPPFLF	0.7355 ± 0.001
HSASSDAGIKVR	0.718 ± 0.0083
SPAPQLFLPPPV	0.665 ± 0.052
MPFYPSLLTSLL	0.678 ± 0.014
KQVIIEKSIQQR	0.661 ± 0.051
NPLRVRNNNDGL	0.745 ± 0.047
PFAPFIHNFGCT	0.713 ± 0.023

Sequence	protein stability index
PPPRPRLSRLLH	0.6114 ± 0.0012
FPFSSFSGRCVD	0.6697 ± 0.0042
RLSLGPGLLGSH	0.74 ± 0.014
AGPGSSSTNHES	0.585 ± 0.015
SGGIPGSPNVRL	0.657 ± 0.01
GGVFWEEGAAER	0.731 ± 0.023
TRLAGINGLLSA	0.689 ± 0.022
VFFPLFLNGSNV	0.695 ± 0.018
VRLLGVGGGFTC	0.701 ± 0.038
ESLVSFTRPFSR	0.748 ± 0.026
HFSSLDPFLPSL	0.712 ± 0.016
PATPPPLPPLSP	0.701 ± 0.054
LFRPSFFFFVCQ	0.548 ± 0.0027
LPPPRSPPLPRL	0.802 ± 0.059
DVPKSGLEVWRR	0.627 ± 0.067
LADFMFCALPLC	0.658 ± 0.045
GSFPPPARARLS	0.677 ± 0.025
PAKTEPGPLNHR	0.68 ± 0.02
SYPTRSKSAYSL	0.652 ± 0.059
PRPAQDAEPIQP	0.646 ± 0.098
NKRKIKKKKKRG	0.651 ± 0.088
